Results: patent US20190345234A1 (CENTRE HOSPITALIER UNIVERSITAIRE VAUDOIS, published 2019)

Biological target: Fc-gamma receptor I (CD64) (UniProt P12314 16-374)
Assay: cell-based or functional assay

Fc-gamma receptor I (CD64), sequence (P12314 16-374 limits assumed, form in doubt): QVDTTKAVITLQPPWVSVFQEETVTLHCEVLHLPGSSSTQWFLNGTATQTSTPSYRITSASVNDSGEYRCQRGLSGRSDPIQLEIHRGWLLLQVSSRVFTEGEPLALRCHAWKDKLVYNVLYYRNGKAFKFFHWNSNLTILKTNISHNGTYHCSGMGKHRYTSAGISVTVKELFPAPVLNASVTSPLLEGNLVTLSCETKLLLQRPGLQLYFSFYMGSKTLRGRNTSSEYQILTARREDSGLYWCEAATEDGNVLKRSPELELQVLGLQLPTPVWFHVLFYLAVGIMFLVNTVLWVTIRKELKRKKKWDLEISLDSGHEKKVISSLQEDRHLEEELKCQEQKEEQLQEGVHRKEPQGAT

B1: IgG1 LN01 antibody (antibody, V domains shown)
VH: EVQLVESGPGLVQPWGTLSLTCRVSGDSVSNDNYYWAWIRQTPGRELQVIGTIYYSGTTYYNPSLRNRVTISLDKSVNVVSLRLGSVSAADTAQYYCVRMPSHGFWSTSFSYWYFDLWGRGHFVAVSW
VL: DIQMTQSPSSLSASVGDKVTITCRASQSVTKYLNWYQFKTGQAPRILIYGTYTLLSGVSPRFSGAGSGSLYTLTITNIQPEDFATYYCQQAHSTPWTFGQGTHVAAN
neutralizing activity on TZM-bl cells expressing Fc-gamma receptor I against parental TZM-bl cells: 100 fold
